Reference: patent publication EP4703390A1 (Chia Tai Tianqing Pharmaceutical Group Co., Ltd., dated 2026)

How the values were obtained:
[1] = biological target: T1, Human c-Met-His (SinoBiological, Cat. No. 10692-H08H) (human, UniProt P08581 25-932); assay: SPR (Biacore), antibody captured on anti-hIgG Fc chip, human c-Met-His as analyte
T1 construct: Bought protein; also called c-Met-His protein; human c-Met protein; not shown: His tag

[2] = biological target: T2, EGFR and c-Met on the surface of tumor cells (human, UniProt P00533 25-1210; P08581 25-1390); assay: flow cytometry, NCI-H1975 cells (medium EGFR, low to medium c-Met)
T2 construct: whole, on cells; Not a complex: two separate receptors on the same cells, both targets of the multispecific antibodies; the read-outs cannot be split between them; also called cells expressing EGFR and c-Met (A431, NCI-H1975, NCI-H1993, NCI-H292, KP4, NCI-H441)

[3] = biological target: T2, EGFR and c-Met on the surface of tumor …; assay: flow cytometry, NCI-H1993 cells (medium EGFR, high c-Met)
[4] = biological target: T2, EGFR and c-Met on the surface of tumor …; assay: cell-based or functional assay
[5] = biological target: T2, EGFR and c-Met on the surface of tumor …; assay: cell-based or functional assay; remark: listed apart in the source
[6] = biological target: T2, EGFR and c-Met on the surface of tumor …; assay: cell-based or functional assay; remark: listed apart in the source
[7] = biological target: T2, EGFR and c-Met on the surface of tumor …; assay: flow cytometry, A431 cells (high EGFR, low c-Met)

T1 sequence (P08581 25-932 limits assumed): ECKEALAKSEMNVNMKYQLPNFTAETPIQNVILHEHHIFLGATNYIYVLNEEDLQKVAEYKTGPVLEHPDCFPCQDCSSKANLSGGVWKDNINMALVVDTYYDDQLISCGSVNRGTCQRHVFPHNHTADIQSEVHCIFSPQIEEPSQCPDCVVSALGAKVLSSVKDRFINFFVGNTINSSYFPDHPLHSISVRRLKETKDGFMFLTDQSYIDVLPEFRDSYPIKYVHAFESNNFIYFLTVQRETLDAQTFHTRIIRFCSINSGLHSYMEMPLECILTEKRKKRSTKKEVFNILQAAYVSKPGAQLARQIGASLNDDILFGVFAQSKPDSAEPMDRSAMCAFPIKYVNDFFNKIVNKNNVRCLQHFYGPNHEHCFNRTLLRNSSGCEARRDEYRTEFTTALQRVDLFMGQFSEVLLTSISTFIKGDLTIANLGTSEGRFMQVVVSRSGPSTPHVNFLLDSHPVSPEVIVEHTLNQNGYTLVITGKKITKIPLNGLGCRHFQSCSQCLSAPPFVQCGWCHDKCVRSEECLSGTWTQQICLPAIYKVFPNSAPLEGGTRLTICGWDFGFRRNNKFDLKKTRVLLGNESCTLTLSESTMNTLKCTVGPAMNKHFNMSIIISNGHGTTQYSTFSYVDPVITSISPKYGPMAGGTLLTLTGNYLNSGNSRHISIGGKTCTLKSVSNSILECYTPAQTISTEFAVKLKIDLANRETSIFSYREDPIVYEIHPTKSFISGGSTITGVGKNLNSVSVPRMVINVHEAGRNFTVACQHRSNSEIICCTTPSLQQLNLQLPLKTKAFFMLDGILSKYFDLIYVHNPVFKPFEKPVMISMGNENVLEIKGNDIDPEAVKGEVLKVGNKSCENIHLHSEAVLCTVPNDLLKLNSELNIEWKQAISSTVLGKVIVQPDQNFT

Binder	Kd [1]	koff [1]	kon [1]	EC50 [2]	EC50 [3]	endocytic activity EC50, A431 cells (flow cytometry, internalization reagent) [4]	endocytic activity EC50, NCI-H441 cells (flow cytometry, internalization reagent) [4]	endocytic activity EC50, NCI-H1975 cells (flow cytometry, internalization reagent) [4]	ADCC lysis EC50, KP4 cells, human PBMC effectors [5]	ADCC lysis EC50, NCI-H292 cells, human PBMC effectors [5]	IC50 for inhibiting proliferation of KP4 cells (CCK8) [6]	IC50 for inhibiting proliferation of NCI-H292 cells (CCK8, with 1 ng/mL HGF) [6]	EC50 [7]
anti-EGFR/anti-c-Met multispecific antibody V35 (bispecific antibody, human IgG1, kappa, Three chains, trivalent: 1B-1B6-V2 VHH - 1B-1C7-V1 VHH - Fc plus anti-EGFR Fab arm; knob-into-hole Fc; expressed in FUT8-/- CHO-S cells) QVQLLESGGGSVQAGGSLRLSCAASGHTYSSGCMGWFRQAPGKGREGVATIYTRNDFTYYSDSVKGRFTISRDNSKNTVYLQMNSLRAEDTAVYYCAAGSPFRYAGAWNVCGLKEEDYNYWGQGTLVTVSSGGGGSGGGGSQVQLVESGGGSVQPGGSLRLSCAASGYSYSANCVGWFRQAPGKGREGVSAINTGGETATYADFVKGRFTISRDNAKNTVYLQMNSLRAEDTAVYYCAAVGTRKYWDECSLSQHAYKNWGQGTLVTVSSGEPKSSDKTHTCPPCPAPELLGGPSVFLFPPKPKDTLMISRTPEVTCVVVDVSHEDPEVKFNWYVDGVEVHNAKTKPREEQYNSTYRVVSVLTVLHQDWLNGKEYKCKVSNKALPAPIEKTISKAKGQPREPQVCTLPPSREEMTKNQVSLSCAVKGFYPSDIAVEWESNGQPENNYKTTPPVLDSDGSFFLVSKLTVDKSRWQQGNVFSCSVMHEALHNRFTQKSLSLSPGK heavy: not shown light: not shown	0.318 nM	3.34e-05 s⁻¹	105000 M⁻¹ s⁻¹										
anti-EGFR/anti-c-Met multispecific antibody V42 (bispecific antibody, human IgG1, kappa, Three chains, trivalent: 1B-1B6-V3 VHH - 1B-1C7-V1 VHH - Fc plus anti-EGFR Fab arm; knob-into-hole Fc; expressed in FUT8-/- CHO-S cells) QVQLLESGGGSVQAGGSLRLSCAASGHTYSSGCMGWFRQAPGKGREGVATIYTRNDFTYYSDTVKGRFTISRDNSKNTVYLQMNSLRAEDTAVYYCAAGSPFRYAGAWNVCGLKEEDYNYWGQGTLVTVSSGGGGSGGGGSQVQLVESGGGSVQPGGSLRLSCAASGYSYSANCVGWFRQAPGKGREGVSAINTGGETATYADFVKGRFTISRDNAKNTVYLQMNSLRAEDTAVYYCAAVGTRKYWDECSLSQHAYKNWGQGTLVTVSSGEPKSSDKTHTCPPCPAPELLGGPSVFLFPPKPKDTLMISRTPEVTCVVVDVSHEDPEVKFNWYVDGVEVHNAKTKPREEQYNSTYRVVSVLTVLHQDWLNGKEYKCKVSNKALPAPIEKTISKAKGQPREPQVCTLPPSREEMTKNQVSLSCAVKGFYPSDIAVEWESNGQPENNYKTTPPVLDSDGSFFLVSKLTVDKSRWQQGNVFSCSVMHEALHNRFTQKSLSLSPGK heavy: not shown light: not shown	0.438 nM	4.39e-05 s⁻¹	100000 M⁻¹ s⁻¹	0.755 nM	1.03 nM	10.5 nM	11.8 nM	9.66 nM	0.0117 nM	0.0135 nM	13.1 nM	13.7 nM	1.85 nM
anti-EGFR/anti-c-Met multispecific antibody V41 (bispecific antibody, human IgG1, kappa, Three chains, trivalent: 1B-1B6-V1 VHH - 1B-1C7-V1 VHH - Fc plus anti-EGFR Fab arm; knob-into-hole Fc; expressed in FUT8-/- CHO-S cells) QVQLLESGGGSVQAGGSLRLSCAASGFTFSSGCMGWFRQAPGKGREGVATIYTRNDFTYYSDSVKGRFTISRDNSKNTVYLQMNSLRAEDTAVYYCAAGSPFRYAGAWNVCGLKEEDYNYWGQGTLVTVSSGGGGSGGGGSQVQLVESGGGSVQPGGSLRLSCAASGYSYSANCVGWFRQAPGKGREGVSAINTGGETATYADFVKGRFTISRDNAKNTVYLQMNSLRAEDTAVYYCAAVGTRKYWDECSLSQHAYKNWGQGTLVTVSSGEPKSSDKTHTCPPCPAPELLGGPSVFLFPPKPKDTLMISRTPEVTCVVVDVSHEDPEVKFNWYVDGVEVHNAKTKPREEQYNSTYRVVSVLTVLHQDWLNGKEYKCKVSNKALPAPIEKTISKAKGQPREPQVCTLPPSREEMTKNQVSLSCAVKGFYPSDIAVEWESNGQPENNYKTTPPVLDSDGSFFLVSKLTVDKSRWQQGNVFSCSVMHEALHNRFTQKSLSLSPGK heavy: not shown light: not shown	0.368 nM	3.57e-05 s⁻¹	97000 M⁻¹ s⁻¹										
anti-EGFR/anti-c-Met multispecific antibody V74 (bispecific antibody, human IgG1, kappa, knob-into-hole Fc; expressed in FUT8-/- CHO-S cells) EVQLVESGGGSVQAGGSLRLSCAVSGFTVSSNFMAWFRQAPGKGREWVSTITTGAGNTAYADSVKGRFTISEDNSKNTAYLQMNSLRAEDTAVYYCAAGRGGFWRPAEYDFWGQGTTVTVSSGGGGSQVQLVESGGGSVQPGGSLRLSCAASGYSYSANCVGWFRQAPGKGREGVSAINTGGETATYADFVKGRFTISRDNAKNTVYLQMNSLRAEDTAVYYCAAVGTRKYWDECSLSQHAYKNWGQGTLVTVSSGEPKSSDKTHTCPPCPAPELLGGPSVFLFPPKPKDTLMISRTPEVTCVVVDVSHEDPEVKFNWYVDGVEVHNAKTKPREEQYNSTYRVVSVLTVLHQDWLNGKEYKCKVSNKALPAPIEKTISKAKGQPREPQVCTLPPSREEMTKNQVSLSCAVKGFYPSDIAVEWESNGQPENNYKTTPPVLDSDGSFFLVSKLTVDKSRWQQGNVFSCSVMHEALHNRYTQKSLSLSPGK heavy: not shown light: not shown	0.548 nM	0.000128 s⁻¹	234000 M⁻¹ s⁻¹										
anti-EGFR/anti-c-Met multispecific antibody V73 (bispecific antibody, human IgG1, kappa, knob-into-hole Fc; expressed in FUT8-/- CHO-S cells) EVQLVESGGGSVQAGGSLRLSCAVSGFTVSSNFMAWFRQAPGKGREWVSTITTGAGNTAYADSVKGRFTISEDNSKNTLYLQMNSLRAEDTAVYYCAAGRGGFWRPAEYDFWGQGTTVTVSSGGGGSQVQLVESGGGSVQPGGSLRLSCAASGYSYSANCVGWFRQAPGKGREGVSAINTGGETATYADFVKGRFTISRDNAKNTVYLQMNSLRAEDTAVYYCAAVGTRKYWDECSLSQHAYKNWGQGTLVTVSSGEPKSSDKTHTCPPCPAPELLGGPSVFLFPPKPKDTLMISRTPEVTCVVVDVSHEDPEVKFNWYVDGVEVHNAKTKPREEQYNSTYRVVSVLTVLHQDWLNGKEYKCKVSNKALPAPIEKTISKAKGQPREPQVCTLPPSREEMTKNQVSLSCAVKGFYPSDIAVEWESNGQPENNYKTTPPVLDSDGSFFLVSKLTVDKSRWQQGNVFSCSVMHEALHNRYTQKSLSLSPGK heavy: not shown light: not shown	0.458 nM	9.03e-05 s⁻¹	197000 M⁻¹ s⁻¹	0.794 nM	1.02 nM	8.33 nM	16.7 nM	12.4 nM	0.027 nM	0.0181 nM	7.99 nM	5.36 nM	1.91 nM
anti-EGFR/anti-c-Met multispecific antibody V67 (bispecific antibody, human IgG1, kappa, knob-into-hole Fc; expressed in FUT8-/- CHO-S cells) EVQLVESGGGSVQAQGSLRLSCTVSGSTYSSNFMAWFRQAPGKEREWVATITTGAGNTAYADSVKGRFTISEDNAKRTAYLQMNSLKPEDTAVYYCAAGRGGFWRPAEYDFWGQGTQVTVSSGGGGSQVQLVESGGGSVQPGGSLRLSCAASGYSYSANCVGWFRQAPGKGREGVSAINTGGETATYADFVKGRFTISRDNAKNTVYLQMNSLRAEDTAVYYCAAVGTRKYWDECSLSQHAYKNWGQGTLVTVSSGEPKSSDKTHTCPPCPAPELLGGPSVFLFPPKPKDTLMISRTPEVTCVVVDVSHEDPEVKFNWYVDGVEVHNAKTKPREEQYNSTYRVVSVLTVLHQDWLNGKEYKCKVSNKALPAPIEKTISKAKGQPREPQVCTLPPSREEMTKNQVSLSCAVKGFYPSDIAVEWESNGQPENNYKTTPPVLDSDGSFFLVSKLTVDKSRWQQGNVFSCSVMHEALHNRYTQKSLSLSPGK heavy: not shown light: not shown	0.276 nM	7.01e-05 s⁻¹	254000 M⁻¹ s⁻¹										
anti-EGFR/anti-c-Met multispecific antibody V12 (bispecific antibody, human IgG1, kappa, Three chains, trivalent: 1B-1B6 VHH - 1B-1C7 VHH - Fc plus anti-EGFR Fab arm; knob-into-hole Fc; expressed in FUT8-/- CHO-S cells) QVQLVESGGDSVQAGGSLRLSCAASAHAYSSGCMGWFRQAPGKGREGVATIYTRNDFTYYSDSVKGRFTISRDDAKNTVYLQVNSLKAEDTAMYYCAAGSPFRYAGAWNVCGLKEEDYNYWGQGTLVTVSSGGGGSGGGGSQVQLVESGGGLVQPGGSLRLSCAASGYSYSANCVGWFYQAPGKEREGVAAINTGGETATYADFVKGRFTISQDYAKNTVYLQMNSLKSEDTGMYYCAAVGTRKYWDECSLSQHAYKNWGQGTLVTVSSGEPKSSDKTHTCPPCPAPELLGGPSVFLFPPKPKDTLMISRTPEVTCVVVDVSHEDPEVKFNWYVDGVEVHNAKTKPREEQYNSTYRVVSVLTVLHQDWLNGKEYKCKVSNKALPAPIEKTISKAKGQPREPQVCTLPPSREEMTKNQVSLSCAVKGFYPSDIAVEWESNGQPENNYKTTPPVLDSDGSFFLVSKLTVDKSRWQQGNVFSCSVMHEALHNRFTQKSLSLSPGK heavy: not shown light: not shown	0.325 nM	4.62e-05 s⁻¹	142000 M⁻¹ s⁻¹										
amivantamab (bispecific antibody) chain 1: not shown chain 2: not shown chain 3: not shown chain 4: DIQMTQSPSSVSASVGDRVTITCRASQGISNWLAWFQHKPGKAPKLLIYAASSLLSGVPSRFSGSGSGTDFTLTISSLQPEDFATYYCQQANSFPITFGQGTRLEIKRTVAAPSVFIFPPSDEQLKSGTASVVCLLNNFYPREAKVQWKVDNALQSGNSQESVTEQDSKDSTYSLSSTLTLSKADYEKHKVYACEVTHQGLSSPVTKSFNRGEC				0.378 nM	0.596 nM	15.1 nM	35.6 nM	15.2 nM	0.0171 nM	0.021 nM	29 nM	45.8 nM	1.62 nM
